Target: T1, mouse PCSK9, mPCSK9-8xHIS (mouse, UniProt Q80W65 35-694, limits assumed)
T1 construct: also called His-tagged mouse PCSK9; biotinylated-mouse PCSK9
Assay: KinExA solution equilibrium
From the text: Equilibrium dissociation constant (KD) were obtained from nonlinear regression of the two sets of competition curves using a one-site homogeneous binding model. The KinExA® Pro software was employed in the analysis.

fold lower affinity than to human and cyno PCSK9: 10 to 250 fold
B1: 16F12, anti-PCSK9 huIgG4 (antibody, V domains shown)
VH: QVHLVESGGGVVQPGRSLRLSCAASGFTFNSFGMHWVRQAPGKGLEWVALIWSDGSDEYYADSVKGRFTISRDNSKNTLYLQMNSLRAEDTAVYYCARAIAALYYYYGMDVWGQGTTVTVSS
VL: QSVLTQPPSVSAAPGQKVTISCSGSSSNIGNNFVSWYQQLPGTAPKLLIYDYNKRPSGIPDRFSGSKSGTSATLGITGLQTGDEADYYCGTWDSSLSAYVFGTGTRVTVLQ
notes: also called 16F12.1

From patent US20120020975A1 (published 2012)
